Test results published in patent publication US20100068186A1 (published 2010).
Numbering of substitutions follows the chain as printed.

T1: catalytic sub-unit of the Telomerase protein peptide on HLA-A*02:01 (human)
T1 peptide: ILAKFLHWL

B1: TCR of SEQ ID NOs 15 and 23 (TCR, V domains shown)
Valpha: GIQVEQSPPDLILQEGANSTLRCNFSDSVNNLQWFHQNPWGQLINLFYIPSGTKQNGRLSATTVATERYSLLYISSSQTTDSGVYFCAVDSATTGMFGYIFGTGTRLKVLA
Vbeta: NAGVTQTPKFQVLKTGQSMTLQCAQDMNHEYMSWYRQDPGMGLRLIHYSVGAGITDQGEVPNGYNVSRSTTEDFPLRLLSAAPSQTSVYFCGIQPQGTEAFFGQGTRLTVV
B2: TCR of SEQ ID NOs 21 and 65 (TCR, V domains shown)
Valpha: B1 Valpha with T94S
Vbeta: B1 Vbeta with V50R, G51W, A52V, I54D, I93V
B3: TCR of SEQ ID NOs 15 and 68 (TCR, V domains shown)
Valpha: B1 Valpha
Vbeta: B1 Vbeta with V50I, G51W, A52E, G53F, I54E
B4: TCR of SEQ ID NOs 15 and 70 (TCR, V domains shown)
Valpha: B1 Valpha
Vbeta: B1 Vbeta with V50I, G51C, A52W, I54C, I93V
B5: TCR of SEQ ID NOs 15 and 69 (TCR, V domains shown)
Valpha: B1 Valpha
Vbeta: B1 Vbeta with V50I, G51W, A52E, G53F, I54E, I93V
B6: TCR of SEQ ID NOs 15 and 66 (TCR, V domains shown)
Valpha: B1 Valpha
Vbeta: B1 Vbeta with V50R, G51W, A52V, I54D

Biological target: T1, catalytic sub-unit of the Telomerase …
Assay: Kd or kinetics

Row | binding result | Binder
1 | recognises | B1
2 | recognises | B2
3 | recognises | B3
4 | recognises | B4
5 | recognises | B5
6 | recognises | B6
